Data reported in publication PMC4118869 (PLoS ONE, 2014).

B1: R1a-B6 (VHH)
VHH: QVQLVESGGGLVQPGGSLRLSCAASGSFFSRYRMGWYRQAPGEQRELVASIAYDGSTSYADPVKGRFTISRDNANTVHLQMYSLKPDDTAVYYCNLDPPGILYWGQGTQVTVSS
notes: also called R1a-B6 monovalent; source: E. coli WK6 periplasm, purified (Talon IMAC, Superdex 75 SEC)
B2: R1a-A5 (VHH)
VHH: QVQLVESGGGLVQPGGSLRLSCSASGSAVLFSTYPMSWYRQAPGKQRELVAAVTTDGSTSYADYAKGRFTISRDNAKNTVYLQMNSLKPEDTAVYYCNARDGFFNRYDYWGQGTQVTVSS
notes: also called R1a-A5 monovalent; source: E. coli WK6 periplasm, purified (Talon IMAC, Superdex 75 SEC)
B3: R2b-E8 (VHH)
VHH: QVQLVESGGGLVQPGGSLRLSCAASGSFFSRYRMGWYRQAPGEQRELVAGITYDDSTNYAGSVKGRFTISRDNAKNTVHLQMNSLKPEDTAVYYCNLNPPGNLYWGQGTQVTVSS
notes: source: E. coli WK6 periplasm, purified (Talon IMAC, Superdex 75 SEC)
B4: R2a-G8 (VHH)
VHH: QLQLAESGGGLVQAGGSLRLSCAASGSTLNNNAIGWFRQAPGKEREGVSCMNSRDGTTNYADSVKGRFTISRDVAKNTVYLQMNSLKPEDTAVYFCAVKGFAPFLIGCPWGKAEYDYWGQGTQVTVSS
notes: as for B3
B5: R2b-D9 (VHH)
VHH: QVQLVESGGGLVQPGGSLRLSCLASGSAFSLYTMGWYRQAPGNQRELVAAITSGESTNYADSVKGRFTISRDNAKNTVYLQMNSLKPEDTAVYYCNADPLSTGWGQYSYWGQGTQVTVSS
notes: as for B3
B6: R2b-D8 (VHH)
VHH: QVQLVESGGGLVQPGGSLRLSCAASGFTFSWYDVGWYRRAPGKERELVADIASTRGTTNYADSVKGRFTISRDNAKNSVYLQMNSLKPEDTAVYYCNTRRDWRDYWGQGIQVTVSS
notes: as for B3
B7: R1a-B6 monovalent (VHH)
VHH: B1 VHH
notes: source: E. coli WK6, periplasmic extract, purified (Talon IMAC, Superdex 75 SEC)
B8: R1a-A5 monovalent (VHH)
VHH: B2 VHH
notes: as for B7

What follows are binders tested against phage displayed HA gene fragment P66-I282 (Influenza A virus A/California/07/2009 …, UniProt C3W5X2) (assay: ELISA). Settings: both partners purified.

| Binder | binding result |
| --- | --- |
| B1 | no binding |
| B2 | no binding |
| B3 | no binding |
| B4 | no binding |
| B5 | no binding |

These binders were tested against hemagglutinin of A/California/07/2009 (H1N1)pdm09, in the influenza virus antigen standard (Influenza A virus A/California/07/2009 …, UniProt C3W5X2, strain) (assay: ELISA). Settings: one partner purified.

| Binder | binding result |
| --- | --- |
| B1 | binds |
| B2 | binds |
| B3 | binds |
| B4 | binds |
| B5 | binds |
| B6 | binds |

Each binder was assayed against phage displayed HA gene fragment D363-G478 (Influenza A virus A/California/07/2009 …, UniProt C3W5X2) (assay: ELISA). Settings: both partners purified.

| Binder | binding result |
| --- | --- |
| B1 | no binding |
| B2 | no binding |
| B3 | no binding |
| B5 | no binding |
| B6 | binds |

Each binder was assayed against phage displayed HA gene fragment L193-K225 (Influenza A virus A/California/07/2009 …, UniProt C3W5X2) (assay: ELISA). Settings: both partners purified.

| Binder | binding result |
| --- | --- |
| B1 | no binding |
| B2 | no binding |
| B3 | no binding |
| B4 | no binding |
| B5 | no binding |

What follows are binders tested against recombinant H1-HA (D18-I530), A/California/06/2009 (H1N1)pdm09 (Influenza A virus A/California/06/2009 …, UniProt C3W5S1, strain) (assay: SPR). Settings: both partners purified.

| Binder | Kd | koff | kon |
| --- | --- | --- | --- |
| B1 | 0.86 nM |  |  |
| B2 | 1.87 nM |  |  |
| B3 | 1.74 nM | 0.000628 s⁻¹ | 361000 M⁻¹ s⁻¹ |
| B4 | 3.55 nM | 0.000798 s⁻¹ | 225000 M⁻¹ s⁻¹ |
| B5 | 0.18 nM | 2.96e-05 s⁻¹ | 167000 M⁻¹ s⁻¹ |

These binders were tested against T1, recombinant H2-HA, A/Japan/305/57 (H2N2) (Influenza A virus A/Japan/305/1957 …, UniProt P03451, strain) (assay: SPR). Settings: both partners purified.
T1 construct: source: bought: E-Enzymes (Protein Sciences in the SPR methods)

| Binder | binding result | Kd | koff | kon |
| --- | --- | --- | --- | --- |
| B2 | no binding |  |  |  |
| B3 | no binding |  |  |  |
| B4 |  | 18.5 nM | 0.0142 s⁻¹ | 764000 M⁻¹ s⁻¹ |
| B5 |  | 2.17 nM | 0.000163 s⁻¹ | 75400 M⁻¹ s⁻¹ |

The binders below were run against recombinant H5-HA, A/Vietnam/1203/2004 (H5N1) (Influenza A virus A/Vietnam/1203/2004 …, UniProt Q5EP31, strain) (assay: SPR). Settings: both partners purified.

| Binder | Kd | koff | kon |
| --- | --- | --- | --- |
| B1 | 0.52 nM |  |  |
| B2 | 0.18 nM |  |  |
| B3 | 0.48 nM | 0.000143 s⁻¹ | 299000 M⁻¹ s⁻¹ |
| B4 | 9.07 nM | 0.00223 s⁻¹ | 252000 M⁻¹ s⁻¹ |
| B5 | 0.15 nM | 2.08e-05 s⁻¹ | 141000 M⁻¹ s⁻¹ |

Each binder was assayed against recombinant H9-HA, A/HongKong/1073/99 (H9N2) (Influenza A virus A/Hong Kong/1073/99 …, UniProt Q9ICY5, strain) (assay: SPR). Settings: both partners purified.

| Binder | Kd | binding result | koff | kon |
| --- | --- | --- | --- | --- |
| B1 | 6.89 nM |  |  |  |
| B2 |  | no binding |  |  |
| B4 |  | no binding |  |  |
| B5 | 128 nM |  | 0.0528 s⁻¹ | 413000 M⁻¹ s⁻¹ |
| B6 |  | no binding |  |  |

Each binder was assayed against T2, recombinant H3-HA, A/Brisbane/10/2007 (H3N2) (Influenza A virus A/Brisbane/10/2007 …, UniProt A8W8K8, strain) (assay: SPR; data not shown: sdAbs on immobilised recombinant H3-HA and H7-HA). Settings: both partners purified.
T2 construct: source: bought: Protein Sciences

| Binder | binding result |
| --- | --- |
| B1 | no binding |
| B2 | no binding |
| B3 | no binding |
| B4 | no binding |
| B5 | no binding |
| B6 | no binding |

Each binder was assayed against T3, recombinant H7-HA, A/Netherlands/219/2003 (H7N7) (Influenza A virus …, UniProt Q6VMK1) in the same assay as above. Settings: both partners purified.
T3 construct: source: bought: Protein Sciences

| Binder | binding result |
| --- | --- |
| B1 | no binding |
| B2 | no binding |
| B3 | no binding |
| B4 | no binding |
| B5 | no binding |
| B6 | no binding |

Each binder was assayed against hemagglutinin of A/HongKong/1073/99 (H9N2), in the influenza virus antigen standard (Influenza A virus A/Hong Kong/1073/99 …, UniProt Q9ICY5, strain) (assay: ELISA). Settings: one partner purified.

| Binder | binding result |
| --- | --- |
| B3 | binds |

Each binder was assayed against hemagglutinin of A/Indonesia/05/2005 (H5N1), in the influenza virus antigen standard (Influenza A virus A/Indonesia/05/2005 …, UniProt A5A5L7, strain) (assay: ELISA). Settings: one partner purified.

| Binder | binding result |
| --- | --- |
| B1 | binds |
| B2 | binds |
| B3 | binds |
| B4 | binds |
| B5 | binds |
| B6 | binds |

What follows are binders tested against hemagglutinin of A/HongKong/213/2003 (H5N1), in the influenza virus antigen standard (Influenza A virus A/Hong Kong/213/2003 …, UniProt Q4H2E2, strain) (assay: ELISA). Settings: one partner purified.

| Binder | binding result |
| --- | --- |
| B1 | binds |
| B2 | binds |
| B3 | binds |
| B4 | binds |
| B5 | binds |
| B6 | binds |

These binders were tested against hemagglutinin of A/Brisbane/10/2007 (H3N2), in the influenza virus antigen standard (Influenza A virus A/Brisbane/10/2007 …, UniProt A8W8K8, strain) (assay: ELISA). Settings: one partner purified.

| Binder | binding result |
| --- | --- |
| B1 | no binding |
| B2 | no binding |
| B3 | no binding |
| B4 | no binding |
| B5 | no binding |
| B6 | no binding |

Each binder was assayed against hemagglutinin of A/Anhui/01/2005 (H5N1), in the influenza virus antigen standard (Influenza A virus A/Anhui/1/2005 (H5N1), UniProt Q1WDM0, strain) (assay: ELISA). Settings: one partner purified.

| Binder | binding result |
| --- | --- |
| B1 | binds |
| B2 | binds |
| B3 | binds |
| B4 | binds |
| B5 | binds |
| B6 | binds |

Each binder was assayed against hemagglutinin of A/Singapore/01/57 (H2N2), in the influenza virus antigen standard (Influenza A virus A/Singapore/1/1957 …, UniProt Q67333, strain) (assay: ELISA). Settings: one partner purified.

| Binder | binding result |
| --- | --- |
| B1 | binds |
| B5 | binds |
| B6 | binds |

Biological target: recombinant H9-HA, A/HongKong/1073/99 (H9N2) (Influenza A virus A/Hong Kong/1073/99 …, UniProt Q9ICY5, strain)
Experiment: SPR
Settings: both partners purified
Remark: another data set of the same source

| Binder | Kd | binding result |
| --- | --- | --- |
| B7 | 4.19 nM |  |
| B8 |  | no binding |

What follows are binders tested against T4, recombinant H7-HA, A/Netherlands/219/2003 (H7N7) (Influenza A virus …, UniProt Q6VMK1) (assay: SPR). Settings: both partners purified.
T4 construct: source: bought: Protein Sciences

| Binder | binding result |
| --- | --- |
| B7 | no binding |
| B8 | no binding |

The binders below were run against T5, recombinant H2-HA, A/Japan/305/57 (H2N2) (Influenza A virus A/Japan/305/1957 …, UniProt P03451, strain) (assay: SPR). Settings: both partners purified.
T5 construct: source: bought: E-Enzymes (list of antigens) or Protein Sciences (SPR methods)

| Binder | binding result |
| --- | --- |
| B8 | no binding |

Each binder was assayed against T6, recombinant H1-HA (H1N1)pdm09 hemagglutinin (Influenza A virus (H1N1)pdm09; …, UniProt C3W5S1, strain) (assay: SPR). Settings: both partners purified.
T6 construct: source: bought: Protein Sciences

| Binder | Kd |
| --- | --- |
| B7 | 0.36 nM |
| B8 | 1.56 nM |

Each binder was assayed against recombinant HA1 domain (D18-R344), A/California/06/2009 (H1N1)pdm09 (Influenza A virus A/California/06/2009 …, UniProt C3W5S1, strain) (assay: SPR). Settings: both partners purified.

| Binder | Kd |
| --- | --- |
| B4 | 7.66 nM |
